{
  "source": "paper PMC6265326",
  "about": "“Structure of the hyperosmolality-gated calcium-permeable channel OSCA1.2” (Nature Communications, 2018)",
  "target": "the molecule itself",
  "experiment": "cryo-EM structure; single-particle cryo-EM of purified AtOSCA1.2 in 25 mM HEPES pH 7.4, 150 mM NaCl, 0.1% digitonin; 3.68 Å",
  "data": [
    {"protein": "OSCA1.2 from Arabidopsis thaliana (AtOSCA1.2) (natural protein, UniProt Q5XEZ5 1-771, looked up, OSCA1.2 (alias CSC1), Arabidopsis thaliana, full length, 771 amino acids; Homodimer in the cryo-EM structure; 683 residues were modelled and the 54 carboxyl-terminal residues are missing from the model; also called CSC1; source: Sf-9 insect cells (baculovirus), purified (digitonin, Ni-NTA, Superose 6 SEC)) MATLQDIGVSAGINILSAFVFFIIFAVLRLQPFNDRVYFSKWYLKGLRSSPARGGAFAQRFVNLDFRSYMKFLNWMPEALKMPEPELIDHAGLDSVVYLRIYWLGLKIFTPIAVLAWAVLVPVNWTNNTLEMAKQLRNVTSSDIDKLSVSNIPEYSMRFWTHIVMAYAFTIWTCYVLMKEYETIANMRLQFVASEARRPDQFTVLVRNVPPDADESVSELVEHFFLVNHPDHYLTHQVVCNANKLADLVKKKKKLQNWLDYYQLKYARNNSQRIMVKLGFLGLWGQKVDAIEHYIAEIDKISKEISKEREEVVNDPKAIMPAAFVSFKTRWAAAVCAQTQQTRNPTQWLTEWAPEPRDVFWSNLAIPYVSLTVRRLIMHVAFFFLTFFFIVPIAFVQSLATIEGIVKAAPFLKFIVDDKFMKSVIQGFLPGIALKLFLAFLPSILMIMSKFEGFTSISSLERRAAFRYYIFNLVNVFLASVIAGAAFEQLNSFLNQSANQIPKTIGVAIPMKATFFITYIMVDGWAGVAGEILMLKPLIMFHLKNAFLVKTDKDREEAMDPGSIGFNTGEPRIQLYFLLGLVYAPVTPMLLPFILVFFALAYIVYRHQIINVYNQEYESAAAFWPDVHGRVIAALVISQLLLMGLLGTKHAALAAPFLIALPVLTIGFHHFCKGRYEPAFIRYPLQEAMMKDTLETAREPNLNLKGYLQNAYVHPVFKGDEDDYDIDDKLGKFEDEAIIVPTKRQSRRNTPAPSIISGDDSPSLPFSGKLV", "values": [
      {"measurement": "stoichiometry N", "value": 2}
    ]}
  ]
}
